Key:
[1] = biological target: T1, CD132 receptor (Sinobiological 10555-H08B) (UniProt P31785); assay: Biacore, CD132 injected over the CD127/IL-7 complex on the chip
T1 sequence (looked up): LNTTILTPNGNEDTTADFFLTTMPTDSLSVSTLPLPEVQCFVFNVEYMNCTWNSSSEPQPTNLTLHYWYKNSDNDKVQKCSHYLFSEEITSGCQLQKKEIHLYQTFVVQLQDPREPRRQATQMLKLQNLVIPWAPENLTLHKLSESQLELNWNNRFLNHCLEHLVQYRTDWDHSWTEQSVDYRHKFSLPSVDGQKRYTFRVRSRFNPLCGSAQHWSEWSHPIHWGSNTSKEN

[2] = biological target: T2, CD127 (Sinobiological, 10975-H03H-50) (UniProt P16871); assay: Biacore, CD127 immobilised on CM5 chip; bivalent model
T2 sequence (looked up): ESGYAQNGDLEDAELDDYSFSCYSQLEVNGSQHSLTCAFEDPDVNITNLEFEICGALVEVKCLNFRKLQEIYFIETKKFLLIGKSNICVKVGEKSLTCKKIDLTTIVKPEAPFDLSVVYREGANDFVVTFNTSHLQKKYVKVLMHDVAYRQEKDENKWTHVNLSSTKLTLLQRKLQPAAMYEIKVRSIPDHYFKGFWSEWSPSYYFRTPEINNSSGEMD

[3] = biological target: T1, CD132 receptor (Sinobiological 10555-H08B); assay: Biacore, CD132 injected over immobilised CD127 + IgG4 alone; steady-state model; baseline, CD127 dimerizes with CD132 in the absence of IL-7

Substance: IL-7 fused to Fc domain (IL7-Fc, CHI-HF-22007 Adipogen) (Fc fusion)
- Kd [1]: 505 nM
- Kd [2]: 6.3 nM

Substance: IgG4 alone (antibody)
- Kd [3]: 2500 nM

— patent US20230071889A1
